What was measured:
[1] = target: human FcγRIIβ on CHOK1 cells (human) (UniProt P31994); assay: ratio of flow cytometry EC50s, reference FcγRIIα (R131) on CHOK1 cells
Hu FcgRIIA_R167 (human) = Hu FcgRIIA_R167 (human) (UniProt P12318); assay: kinetics, antibody captured on protein A/G chip, FcγR injected as analyte
Hu FcγRIIβ (human) = Hu FcγRIIβ (human) (UniProt P31994); assay: as above

Sequence of UniProt P12318 (P12318 36-218 H167R limits assumed): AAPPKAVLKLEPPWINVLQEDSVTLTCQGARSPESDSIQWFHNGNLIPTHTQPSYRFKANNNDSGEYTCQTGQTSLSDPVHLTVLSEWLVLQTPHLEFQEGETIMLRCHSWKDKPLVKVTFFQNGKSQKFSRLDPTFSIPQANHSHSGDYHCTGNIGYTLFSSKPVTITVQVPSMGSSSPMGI

IgG1 P238D (antibody) showed an IIa/IIb (ratio of EC50) [1] of 77.8, a Fold (KD(IgG WT)/KD(variants)) (Hu FcgRIIA_R167 (human)) of under 0.3 fold and a Kd (Hu FcgRIIA_R167 (human)) of over 5 µM. It also gave a Fold (KD(IgG WT)/KD(variants)) (Hu FcγRIIβ (human)) of 3.18 fold.

— patent US20260176331A1
